Target: tetanus toxoid (UniProt P04958 2-1315)
Experiment: ELISA

B1: Sample C: protein from vectors pG31020, pG31030 and pG31027, consisting of FvL-AHECa, FvH-AHECb and ubiquitin-AHECc with a disulfide bridge between AHECa and … (other)
VL: MDIVMTQSQKFMSTSVGDRVSVTCKASQNVGASVAWYQQKPGQSPKILIYSASYRYSGVPDRFTGSGSGTDFTLTISNVQSEDLAEYFCQQYNGYPLTFGAGTKLELRTSDSLRLQQLFRDCEDEETWIREKEPIAASTAMDIGINSDPNSSSVDKLAAALEHHHHHH
VH: MGSGIEGRMASEVQLQQSGPELVKPGASVKMSCKASGYTFTNYIMYWVTQRPGQGLEWIGYIHPYNDDTKYNEKFKDKATLTSDRSSRTAYMELSSLTSEDSAVYYCARKKANFGYGPWFAYWGQGTLVTVSARTKHQALQAEIAGHEPRIKACTQKGNAMVEESLEHHHHHH
chain: not shown
- Ka: 4.3e+08 M⁻¹

— patent publication US20030170230A1 (published 2003)
